Assay [1] has as its target T1, human LRP6 (low density lipoprotein receptor-related protein 6), full length on HEK293 cells (human, UniProt O75581 20-1613). Description: cell-based or functional assay.
Assay [2] deals with T2, LRP6 double mutant (K662A/K684A) on HEK293 cells (human, UniProt O75581 20-1613).
T2 construct: whole, on cells; Made by site-directed mutagenesis of the LRP6 construct in pCMV-Entry and transfected into HEK293 cells
Put plainly: flow cytometry on transfected HEK293 cells. Here is the method: FIG. 1F is a graph showing fine epitope mapping by alanine scanning of LRP6 and the effect of the alanine substitutions on binding of the 66 antibody. LRP6 single mutants and the double mutant (K662A/K684A) were separately transfected into HEK293 cells. An anti-LRP6 scFv-Fc fusion that binds to the LRP6-P1 domain was used as a control to confirm cell surface expression of LRP6. Binding of the 66 antibody was determined by flow cytometry, and median fluorescence intensity (MFI) values were normalized against MFI of the P1-binding scFv-Fc.
To map the binding site further, the binding of the 66 antibody to LRP6 was modeled using a homology modeling-predicted structure for the 66 Fv and two known crystal structures of LRP6 (3S8Z and 4A0P: FIGS. 8A and 8B, respectively). Several potential 66 contact sites were identified on LRP6. Alanine scan mutagenesis was performed at those sites. Alanine mutants of LRP6 ectodomain were constructed using QuikChange Site-Directed Mutagenesis Kit (Agilent Technologies) according to the manufacturer's protocol. Binding of the 66 IgG to these LRP6 mutants was analyzed by flow cytometry. K662A and K684A single mutations caused a significant loss of 66 binding (FIG. 1F).
(In general: Flow cytometry measures light scatter and fluorescence of single cells or particles in a stream.)

Assay [3] deals with T1, human LRP6 (low density lipoprotein …). Description: flow cytometry titration of 66 IgG on HEK293 cells. Here is the method: (§1) HEK293 cells were transfected with LRP6 expression plasmid and incubated with 66 or E34N19 scFv-phage for 1 hour. E34N19 was identified previously as a Wnt antagonist binding to the P3E3P4E4 domain (Lee et al., 2018). The E34N19 IgG was simultaneously added as a competitor. Bound phages were detected by sequential incubation of mouse anti-fd IgG and PE-labeled anti-mouse IgG. FIG. 7A is a graph showing the dissociation curve of the 66 antibody. HEK293 cells were incubated with varying concentrations of 66 IgG, and the binding was analyzed by flow cytometry. […] As a positive control, the E34N19E IgG competes with the E34N19E scFv-phage.
(§2) The apparent KD of antibodies was analyzed by FACS as described (Lee et al., 2018). Briefly, cells were trypsinized, washed, and resuspended in FACS buffer (PBS, 1% FBS). Antibodies serially diluted in FACS buffer were incubated with target cells (3×10⁵ cells/tube) overnight at 4° C. Cells were washed, incubated with Alexa Fluor® 647-labeled goat anti-human IgG (Jackson ImmunoResearch). 1 hour post incubation, cells were washed in PBS and analyzed using a BD Accuri C6 flow cytometer (BD Biosciences). Median Fluorescence Intensity (MFI) values were analyzed by curve fitting (GraphPad) to determine the affinity.

For assay [4], the target named is T3, recombinant mouse LRP6 extracellular domain (mouse, UniProt O88572 20-1370).
T3 construct: extracellular domain; also called mouse LRP6 ectodomain
T3 sequence (looked up): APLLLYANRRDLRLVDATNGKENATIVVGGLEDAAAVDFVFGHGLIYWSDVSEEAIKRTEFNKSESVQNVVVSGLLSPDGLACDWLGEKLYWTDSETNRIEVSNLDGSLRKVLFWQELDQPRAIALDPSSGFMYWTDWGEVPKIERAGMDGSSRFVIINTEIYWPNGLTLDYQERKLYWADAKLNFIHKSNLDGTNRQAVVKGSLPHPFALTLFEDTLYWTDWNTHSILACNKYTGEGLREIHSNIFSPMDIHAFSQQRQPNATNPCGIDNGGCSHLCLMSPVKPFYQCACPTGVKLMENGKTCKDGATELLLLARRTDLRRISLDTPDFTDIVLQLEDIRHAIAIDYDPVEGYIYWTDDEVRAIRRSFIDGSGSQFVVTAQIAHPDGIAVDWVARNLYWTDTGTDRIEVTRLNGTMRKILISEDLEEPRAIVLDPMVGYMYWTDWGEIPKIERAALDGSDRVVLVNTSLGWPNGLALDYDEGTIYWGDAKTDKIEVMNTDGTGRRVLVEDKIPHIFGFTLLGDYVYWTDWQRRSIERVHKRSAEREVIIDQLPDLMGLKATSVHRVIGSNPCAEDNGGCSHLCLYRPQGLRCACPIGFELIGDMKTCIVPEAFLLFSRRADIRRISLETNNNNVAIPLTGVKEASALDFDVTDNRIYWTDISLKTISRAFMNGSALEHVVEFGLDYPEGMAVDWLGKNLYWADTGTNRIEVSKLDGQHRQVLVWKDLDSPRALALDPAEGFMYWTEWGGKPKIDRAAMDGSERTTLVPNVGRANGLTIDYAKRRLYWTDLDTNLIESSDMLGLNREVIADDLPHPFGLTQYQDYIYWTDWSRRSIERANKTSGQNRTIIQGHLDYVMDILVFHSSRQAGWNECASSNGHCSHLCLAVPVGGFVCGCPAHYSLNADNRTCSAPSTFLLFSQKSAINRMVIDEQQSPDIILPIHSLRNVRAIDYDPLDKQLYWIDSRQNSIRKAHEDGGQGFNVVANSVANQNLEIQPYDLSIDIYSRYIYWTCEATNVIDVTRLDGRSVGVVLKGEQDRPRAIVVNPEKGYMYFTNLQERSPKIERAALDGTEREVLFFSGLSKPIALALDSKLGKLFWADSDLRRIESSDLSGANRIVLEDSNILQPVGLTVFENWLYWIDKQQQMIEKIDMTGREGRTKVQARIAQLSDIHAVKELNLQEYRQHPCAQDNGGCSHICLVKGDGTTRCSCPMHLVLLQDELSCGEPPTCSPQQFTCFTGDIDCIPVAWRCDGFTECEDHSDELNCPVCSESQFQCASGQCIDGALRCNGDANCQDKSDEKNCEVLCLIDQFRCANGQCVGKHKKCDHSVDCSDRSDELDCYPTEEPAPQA
Description: ELISA on recombinant mouse LRP6 extracellular domain. In general terms: An ELISA detects its analyte on a solid surface through an enzyme-linked reagent.

The target of assay [5] is T1, human LRP6 (low density lipoprotein …). Put plainly: flow cytometry on HEK293 cells; apparent KD by curve fitting of MFI. The protocol: as §1, §2

B1: 66 IgG (Wnt-agonist human monoclonal antibody 66) (antibody, V domains shown)
VH: QVQLLQSGGGLVQPGGSLRLSCAASGFTFSTYAMSWVRQAPGKGLEWVSTIGPSGSSTYYAYADSVKGRFTISRDNYKNMLYLQMNSLRAEDTAVYYCAKEGPNSGYFDFDYWGQGTLVTVSS
VL: EIVLTQSPSSLSASVGDRVTITCRASQSISTYLNWYQQKPGKAPKVLIYAASSLQSGVPSRISGSGSGTDFTLTISSLQPEDFATYYCQQSYSIPLTFGGGTKLEIK
notes: also called 66 antibody; agonist 66 IgG
As usually defined, the EC50 (read off the curve) is the concentration giving half of the maximal effect. Low values mean higher potency in that assay, high ones lower potency in that assay. Turning to B1, in assay [1], the “EC50, STF reporter on HEK293 cells without Wnt ligands” value amounted to 13.4 nM; the “EC50, Wnt1-mediated beta-catenin signaling (STF reporter) with RSPO2 (5 nM)” value came to 1.8 nM; the “EC50, Wnt3a-mediated beta-catenin signaling (STF reporter) with RSPO2 (5 nM)” value is 4.8 nM. Further, the binding result in assay [2] is “no binding”. For the same molecule, the 50% effective concentration (EC50 (read off the curve)) in assay [3] is roughly 5 nM. In addition, in assay [4], the binding result is “binds”. Also, in assay [5], the Kd was roughly 5 nM.

The record behind these values is patent publication US20240254219A1 (University of California, published 2024).
